Target: MBP-SpyTag
Assay: SDS-PAGE coupling assay, biotin-HPDP-modified Catcher, without TCEP, one hour

B1: SpyCatcher Ala87→Cys modified with biotin-HPDP (designed binder)
chain: VTTLSGLSGEQGPSGDMTTEEDSATHIKFSKRDEDGRELAGATMELRDSSGKTISTWISDGHVKDFYLYPGKYTFVETAAPDGYEVCTPIEFTVNEDGQVTVDGEATEGDAHT
- loss of activity: 50%

— patent publication US20240368234A1
